Measured values taken from patent US20090192289A1 (Genentech, published 2009).
Where no end group is shown, it is not given here.

B1: libC phage-displayed peptide SEQ ID NO:39 (peptide)
chain: RIPFLFFLWA
modifications: not fully specified (N-terminus)
notes: not shown: M13 gene-8 major coat protein (P8)
B2: libC phage-displayed peptide SEQ ID NO:44 (peptide)
chain: TVHSWFLWFV
modifications: not fully specified (N-terminus)
notes: as for B1
B3: libC phage-displayed peptide SEQ ID NO:38 (peptide)
chain: TRANWLFFWV
modifications: not fully specified (N-terminus)
notes: as for B1
B4: libC phage-displayed peptide SEQ ID NO:46 (peptide)
chain: IPLHWIFYLV
modifications: not fully specified (N-terminus)
notes: as for B1
B5: libN phage-displayed peptide WEWIGMEWG (peptide)
chain: WEWIGMEWG
modifications: not fully specified (C-terminus)
notes: 31 siblings; not shown: M13 gene-8 major coat protein (P8)
B6: libC phage-displayed peptide SEQ ID NO:27 (peptide)
chain: PGRWGPFFWV
modifications: not fully specified
notes: as for B1
B7: libC phage-displayed peptide SEQ ID NO:32 (peptide)
chain: YPTYWTFWWV
modifications: not fully specified
notes: as for B1
B8: libC phage-displayed peptide SEQ ID NO:42 (peptide)
chain: SLLNWVLYLV
modifications: not fully specified (N-terminus)
notes: as for B1
B9: libC phage-displayed peptide SEQ ID NO:41 (peptide)
chain: TGMSWTIWFL
modifications: not fully specified (N-terminus)
notes: as for B1
B10: libC phage-displayed peptide SEQ ID NO:34 (peptide)
chain: FLGFLEFFWI
modifications: not fully specified
notes: as for B1
B11: libC phage-displayed peptide SEQ ID NO:40 (peptide)
chain: SKLRLFFMWV
modifications: not fully specified (N-terminus)
notes: as for B1
B12: libC phage-displayed peptide SEQ ID NO:28 (peptide)
chain: DSLLFDFWWA
modifications: not fully specified
notes: as for B1
B13: libC phage-displayed peptide SEQ ID NO:35 (peptide)
chain: SFYILRYFWV
modifications: not fully specified
notes: as for B1
B14: libC phage-displayed peptide SEQ ID NO:30 (peptide)
chain: SSFFRFWFV
modifications: not fully specified
notes: as for B1
B15: libC phage-displayed peptide SEQ ID NO:43 (peptide)
chain: GLMPLLFFWV
modifications: not fully specified (N-terminus)
notes: as for B1
B16: libC phage-displayed peptide WLDRFPHFWV (peptide)
chain: WLDRFPHFWV
modifications: not fully specified (N-terminus)
notes: 15 siblings; not shown: M13 gene-8 major coat protein (P8)
B17: libC phage-displayed peptide SEQ ID NO:31 (peptide)
chain: DRLNWLFFWI
modifications: not fully specified
notes: as for B1
B18: libC phage-displayed peptide SEQ ID NO:33 (peptide)
chain: LYSIYRFFWA
modifications: not fully specified
notes: as for B1
B19: libC phage-displayed peptide SEQ ID NO:45 (peptide)
chain: WVDSCPIFWV
modifications: not fully specified (N-terminus)
notes: as for B1
B20: libC phage-displayed peptide SEQ ID NO:29 (peptide)
chain: NQRVWIFWLI
modifications: not fully specified
notes: as for B1
B21: libC phage-displayed peptide SEQ ID NO:36 (peptide)
chain: TMSDWLFWWA
modifications: not fully specified (N-terminus)
notes: as for B1
B22: libN phage-displayed peptide SEQ ID NO:49 (peptide)
chain: SHWWGGWLG
modifications: not fully specified (C-terminus)
notes: 17 siblings; not shown: M13 gene-8 major coat protein (P8)
B23: libC phage-displayed peptide KVASWTMFWV (peptide)
chain: KVASWTMFWV
modifications: not fully specified
notes: 42 siblings; not shown: M13 gene-8 major coat protein (P8)

Molecular target: T1, GST-Omi PDZ fusion protein (human, UniProt O43464 359-458)
T1 construct: also called GST-hOmiPDZ; hOmi PDZ domain; not shown: glutathione S-transferase (GST) encoded by plasmid pGEX6P-3
T1 sequence: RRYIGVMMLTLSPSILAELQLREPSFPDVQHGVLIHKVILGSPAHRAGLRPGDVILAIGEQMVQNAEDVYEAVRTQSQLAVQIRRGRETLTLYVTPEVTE
Assay: phage ELISA on GST-Omi PDZ after three rounds of selection
Method: Selection for Omi PDZ peptides—Previously described procedures were used to isolate peptides that bound to a GST-Omi PDZ fusion, using libraries of random decapeptides fused to either the C terminus(18) or octapeptide fused to the N terminus(19) of the M13 gene-8 major coat protein, designated as libC or libN, respectively. After three rounds of selection, individual clones were grown in a 96-well format in 500 μL of 2YT broth supplemented with carbenicillin, kanamycin and KO7, and the culture supernatants were used directly in phage ELISAs(19) to detect peptides that bound specifically to Omi PDZ. Peptide sequences derived from positive clones were aligned and tabulated. A total of 95 positive colonies from libC and 89 from libN were analyzed. (see Table II). […] The sequences were selected after three rounds of sorting with IPTG induction. Hydrophobic residues (A, F, I, L, M, V, W, Y) are italicized and bolded, n is the number of siblings.

Question: Does B1 bind?
Answer: binds

Question: Does B2 bind?
Answer: binds

Question: Does B3 bind?
Answer: binds

Question: Does B4 bind?
Answer: binds

Question: Does B5 bind?
Answer: binds

Question: Does B6 bind?
Answer: binds

Question: Does B7 bind?
Answer: binds

Question: Does B8 bind?
Answer: binds

Question: Does B9 bind?
Answer: binds

Question: Does B10 bind?
Answer: binds

Question: Does B11 bind?
Answer: binds

Question: Does B12 bind?
Answer: binds

Question: Does B13 bind?
Answer: binds

Question: Does B14 bind?
Answer: binds

Question: Does B15 bind?
Answer: binds

Question: Does B16 bind?
Answer: binds

Question: Does B17 bind?
Answer: binds

Question: Does B18 bind?
Answer: binds

Question: Does B19 bind?
Answer: binds

Question: Does B20 bind?
Answer: binds

Question: Does B21 bind?
Answer: binds

Question: Does B22 bind?
Answer: binds

Question: Does B23 bind?
Answer: binds
